The source of these data is patent US20210380703A1.

B1: 369_A02 (antibody, V domains shown)
VH: EVQLLESGGGLVQPGGSLRLSCAASGFTFSSYSMNWVRQAPGKGLEWVAGINYNSGYTGYADSVKGRFTISRDNSKNTLYLQMNSLRAEDTAVYYCARSANWHDTHLDYWGQGTLVTVSS
VL: DIQMTQSPSSLSASVGDRVTITCRASQSILSYVNWYQQKPGKAPKLLIYAATSRASGVPSRFSGSGSGTDFTLTISSLQPEDFATYYCQQSYDLPLTFGGGTKVEIK
B2: 369_D02 (antibody, V domains shown)
VH: EVQLLESGGGLVQPGGSLRLSCAASGFTFSDYSMNWVRQAPGKGLEWVSNINYNSGYTGYADSVKGRFTISRDNSKNTLYLQMNSLRAEDTAVYYCARSANWHDTALDYWGQGTLVTVSS
VL: DIQMTQSPSSLSASVGDRVTITCRASQSILSYLNWYQQKPGKAPKLVIYAVTSRASGVPSRFSGSGSGTDFTLTISSLQPEDFATYYCQQSYDTPLTFGGGTKVEIK
B3: 369_C02 (antibody, V domains shown)
VH: EVQLLESGGGLVQPGGSLRLSCAASGFTFDSYSMNWVRQAPGKGLEWVSNINYNGGYKSYADSVKGRFTISRDNSKNTLYLQMNSLRAEDTAVYYCARSANWHDTALDYWGQGTLVTVSS
VL: DIQMTQSPSSLSASVGDRVTITCRASQSILTYLNWYQQKPGKAPKLVIYAATSRASGVPSRFSGSGSGTDFTLTISSLQPEDFATYYCQQSYELPLTFGGGTKVEIK
B4: 369_D04 (antibody, V domains shown)
VH: EVQLLESGGGLVQPGGSLRLSCAASGFTFDSYGMNWVRQAPGKGLEWVSGINYNGGYTSYADSVKGRFTISRDNSKNTLYLQMNSLRAEDTAVYYCARSANWHDTALDYWGQGTLVTVSS
VL: DIQMTQSPSSLSASVGDRVTITCRASQSILSYVNWYQQKPGKAPKLVIYAATSRASGVPSRFSGSGSGTDFTLTISSLQPEDFATYYCQQSYNLPLTFGGGTKVEIK
B5: 369_E12 (antibody, V domains shown)
VH: EVQLLESGGGLVQPGGSLRLSCAASGFTFSSYGMHWVRQAPGKGLEWVASINYNSGYTSYADSVKGRFTISRDNSKNTLYLQMNSLRAEDTAVYYCARSANWHDTALDYWGQGTLVTVSS
VL: DIQMTQSPSSLSASVGDRVTITCRASQSIISYLNWYQQKPGKAPKLLIYAATSRASGVPSRFSGSGSGTDFTLTISSLQPEDFATYYCQQSYESPLTFGGGTKVEIK
B6: 369_E11 (antibody, V domains shown)
VH: EVQLLESGGGLVQPGGSLRLSCAASGFTFSSYGMNWVRQAPGKGLEWVSNINYNGGYTSYADSVKGRFTISRDNSKNTLYLQMNSLRAEDTAVYYCARSANWHDTALDYWGQGTLVTVSS
VL: DIQMTQSPSSLSASVGDRVTITCRASQSIISYLNWYQQKPGKAPKLLIYAATSLASGVPSRFSGSGSGTDFTLTISSLQPEDFATYYCQQSYDTPLTFGGGTKVEIK
B7: 369_E02 (antibody, V domains shown)
VH: EVQLLESGGGLVQPGGSLRLSCAASGFTFDSYGMNWVRQAPGKGLEWVSNINYNGGYTGYADSVKGRFTISRDNSKNTLYLQMNSLRAEDTAVYYCARSANWHDTALDYWGQGTLVTVSS
VL: DIQMTQSPSSLSASVGDRVTITCRASQSIVSYVNWYQQKPGKAPKLLIYATTSRHSGVPSRFSGSGSGTDFTLTISSLQPEDFATYYCQQSYDNPLTFGGGTKVEIK
B8: 369_C04 (antibody, V domains shown)
VH: EVQLLESGGGLVQPGGSLRLSCAASGFTFSSYSMNWVRQAPGKGLEWVSNINYNGGYTGYADSVKGRFTISRDNSKNTLYLQMNSLRAEDTAVYYCARSANWHDTALDYWGQGTLVTVSS
VL: DIQMTQSPSSLSASVGDRVTITCRASQSILTYVNWYQQKPGKAPKLLIYTTTSLHSGVPSRFSGSGSGTDFTLTISSLQPEDFATYYCQQSYNNPLTFGGGTKVEIK
B9: 369_F02 (antibody, V domains shown)
VH: EVQLLESGGGLVQPGGSLRLSCAASGFTFSSYGMNWVRQAPGKGLEWVASINYNSGYKSYADSVKGRFTISRDNSKNTLYLQMNSLRAEDTAVYYCARSANWHDTALDYWGQGTLVTVSS
VL: DIQMTQSPSSLSASVGDRVTITCRASQSIVSYLNWYQQKPGKAPKLVIYAATSRASGVPSRFSGSGSGTDFTLTISSLQPEDFATYYCQQSYDTPLTFGGGTKVEIK
B10: 369_F01 (antibody, V domains shown)
VH: EVQLLESGGGLVQPGGSLRLSCAASGFTFSSYGMNWVRQAPGKGLEWVSGINYNGGYKSYADSVKGRFTISRDNSKNTLYLQMNSLRAEDTAVYYCARSANWHDTALDYWGQGTLVTVSS
VL: DIQMTQSPSSLSASVGDRVTITCRASQSILTYVNWYQQKPGKAPKLLIYAATSRASGVPSRFSGSGSGTDFTLTISSLQPEDFATYYCQQSYELPLTFGGGTKVEIK
B11: 369_B01 (antibody, V domains shown)
VH: EVQLLESGGGLVQPGGSLRLSCAASGFTFSSYSMNWVRQAPGKGLEWVSGINYNGGYTSYADSVKGRFTISRDNSKNTLYLQMNSLRAEDTAVYYCARSANWHDTALDYWGQGTLVTVSS
VL: DIQMTQSPSSLSASVGDRVTITCRASQSILSYLNWYQQKPGKAPKLLIYAVTSRASGVPSRFSGSGSGTDFTLTISSLQPEDFATYYCQQSYENPLTFGGGTKVEIK
B12: 369_F03 (antibody, V domains shown)
VH: EVQLLESGGGLVQPGGSLRLSCAASGFTFSDYGMNWVRQAPGKGLEWVSGINYNSGYTSYADSVKGRFTISRDNSKNTLYLQMNSLRAEDTAVYYCARSANWHDTALDYWGQGTLVTVSS
VL: DIQMTQSPSSLSASVGDRVTITCRASQSIVSYVNWYQQKPGKAPKLLIYAATSLASGVPSRFSGSGSGTDFTLTISSLQPEDFATYYCQQSYDSPLTFGGGTKVEIK
B13: 369_C03 (antibody, V domains shown)
VH: EVQLLESGGGLVQPGGSLRLSCAASGFTFSSYGMNWVRQAPGKGLEWVSNINYNGGYKSYADSVKGRFTISRDNSKNTLYLQMNSLRAEDTAVYYCARSANWHDTALDYWGQGTLVTVSS
VL: DIQMTQSPSSLSASVGDRVTITCRASQSILTYLNWYQQKPGKAPKLVIYAATSRASGVPSRFSGSGSGTDFTLTISSLQPEDFATYYCQQSYDSPLTFGGGTKVEIK
B14: 369_D12 (antibody, V domains shown)
VH: EVQLLESGGGLVQPGGSLRLSCAASGFTFDSYSMNWVRQAPGKGLEWVAGINYNSGYTSYADSVKGRFTISRDNSKNTLYLQMNSLRAEDTAVYYCARSANWHDTALDYWGQGTLVTVSS
VL: DIQMTQSPSSLSASVGDRVTITCRASQSILSYLNWYQQKPGKAPKLLIYAATSLASGVPSRFSGSGSGTDFTLTISSLQPEDFATYYCQQSYDTPLTFGGGTKVEIK
B15: 369_F06 (antibody, V domains shown)
VH: EVQLLESGGGLVQPGGSLRLSCAASGFTFDDYSMNWVRQAPGKGLEWVAGINYNGGYKGYADSVKGRFTISRDNSKNTLYLQMNSLRAEDTAVYYCARSANWHDTALDYWGQGTLVTVSS
VL: DIQMTQSPSSLSASVGDRVTITCRASQSIVSYVNWYQQKPGKAPKLVIYAATSRASGVPSRFSGSGSGTDFTLTISSLQPEDFATYYCQQSYDSPLTFGGGTKVEIK

This test has as its target Human Fc (human). Briefly: ELISA, negative control. On the technique in general: In an ELISA, binding on a coated surface is turned into a signal by an enzyme label.
Molecule B1 came in with an optical density of 0.383 OD.
Regarding B2, the optical density was 0.407 OD.
Then B3, with 0.369 OD; and B4, with 0.435 OD; and B5, with 0.452 OD.
Then B6, with 0.343 OD; and B7, with 0.365 OD; and B8, with 0.248 OD.
For B9, the optical density is 0.478 OD.
The value for B10 was 0.554 OD; that for B11 was 0.487 OD.
In turn, B12 showed an optical density of 0.389 OD.
B13 returned an optical density of 0.323 OD.
The value for B14 was 0.425 OD; that for B15 was 0.353 OD.
